Experimental data: the Immune Epitope Database (IEDB)
pKd: −log10 of the molar value.

Assays:
Experiment in all cases: IEDB peptide-MHC binding, purified MHC/competitive/radioactivity; filed as Kd, often an IC50 or EC50 that approximates it; ≥ and ≤ were set here for values at or beyond the usual limits of such assays
HLA-A*02:03 = target: HLA-A*02:03
HLA-A*02:02 = target: HLA-A*02:02
HLA-A*02:06 = target: HLA-A*02:06
HLA-A*33:01 = target: HLA-A*33:01
HLA-A*68:01 = target: HLA-A*68:01
HLA-A*31:01 = target: HLA-A*31:01
HLA-A*11:01 = target: HLA-A*11:01
HLA-A*03:01 = target: HLA-A*03:01
[1] = source organism: Vaccinia virus WR
[2] = source organism: Dengue virus 2 Jamaica/1409/1983
[3] = source organism: SARS coronavirus Tor2
[4] = source organism: Lymphocytic choriomeningitis virus (strain WE)
[5] = source organism: Mammarenavirus whitewaterense
[6] = source organism: Mammarenavirus brazilense
[7] = source organism: Mammarenavirus juninense
[8] = source organism: Vaccinia virus Copenhagen
[9] = source organism: Lymphocytic choriomeningitis virus (strain Armstrong)

Sequence	pKd (HLA-A*02:03; [1])	pKd (HLA-A*02:02; [1])	pKd (HLA-A*02:06; [1])	other results
AIDRQVSVKL	4.88	5.10	≤ 4.49	–
ALGMMVLKIV	–	–	–	pKd (HLA-A*02:03; [2]): 7.25
ALLFLMSFT	–	–	–	pKd (HLA-A*02:03; [3]): 5.70; pKd (HLA-A*02:02; [3]): 5.55; pKd (HLA-A*02:06; [3]): 6.89
ALLSCIRNA	8.21	6.92	7.11	–
ALYSPPLISI	6.82	8.85	6.79	–
ATQFNFNGHT	4.94	≤ 4.54	≤ 4.58	–
CQCTVQEFI	5.32	5.69	5.95	–
CTEETKRNIA	≤ 4.30	≤ 4.15	≤ 4.16	–
CVDHPFIYV	5.85	6.52	6.83	–
DLLFNEKLKV	6.50	6.45	5.69	–
DLLNVTYNI	6.71	6.53	5.89	–
DVERLQMAGV	6.98	6.67	6.11	–
DVSVSVGTGI	5.23	4.75	≤ 4.66	–
EMKYALINL	7.20	5.51	≤ 4.11	–
FIVYGRSNA	6.43	5.22	5.06	–
FLPQIGGEAI	7.87	9.00	8.00	–
FQPHQLWTT	–	–	–	pKd (HLA-A*02:06; source organism: Dengue virus 1 Brazil/97-11/1997): 8.22
FSTSAYLISI	–	–	–	pKd (HLA-A*02:03; [4]): 7.87; pKd (HLA-A*02:02; [4]): 9.17; pKd (HLA-A*02:06; [4]): 8.46
GAAITLVVI	5.48	5.19	5.53	–
GARVIWMDA	5.04	5.34	5.67	–
GIKNLKSLL	5.58	5.67	≤ 4.21	–
GLIVILFIM	5.86	4.87	5.28	–

Sequence	pKd (HLA-A*02:03; [1])	pKd (HLA-A*02:02; [1])	pKd (HLA-A*02:06; [1])	other results
GLMILLTGGA	–	–	–	pKd (HLA-A*02:03; source organism: Dengue virus 3 Martinique/1243/1999): 7.64
GLSASDVDM	5.45	6.30	4.86	–
GLVDVCFWS	–	–	–	pKd (HLA-A*02:03; [5]): 5.97; pKd (HLA-A*02:02; [5]): 6.94; pKd (HLA-A*02:06; [5]): 6.27
GQIDNFSLGV	–	–	–	pKd (HLA-A*02:06; [2]): 8.25
GTKGKLYIA	7.25	5.76	5.60	–
GTKGKLYIAL	5.11	5.04	≤ 4.43	–
IADIRDKYM	6.64	7.20	≤ 4.24	–
IAIFNNRNL	4.98	5.03	4.87	–
ICFWSTLFFT	–	–	–	pKd (HLA-A*02:03; [6]): ≤ 4.45; pKd (HLA-A*02:02; [6]): ≤ 4.48; pKd (HLA-A*02:06; [6]): ≤ 4.46
IISLFYTFAI	7.36	6.97	6.84	–
ILATLNTLI	9.64	9.38	7.39	–
ILAVVSVSPL	–	–	–	pKd (HLA-A*02:03; source organism: Dengue virus 2 16681-PDK53): 7.40
KLKSMEAEMI	–	–	–	pKd (HLA-A*02:06; source organism: Homo sapiens): 5.11
KVSCTILAAV	–	–	–	pKd (HLA-A*02:03; [2]): 7.26; pKd (HLA-A*02:06; [2]): 7.90
RNPYENLLYK	–	–	–	pKd (HLA-A*33:01; [7]): ≤ 4.44; pKd (HLA-A*68:01; [7]): 4.90; pKd (HLA-A*31:01; [7]): 5.32; pKd (HLA-A*11:01; [7]): 6.20; pKd (HLA-A*03:01; [7]): 5.61
RQILDNAAK	–	–	–	pKd (HLA-A*33:01; [1]): ≤ 4.11; pKd (HLA-A*68:01; [1]): ≤ 4.45; pKd (HLA-A*31:01; [1]): 5.95; pKd (HLA-A*11:01; [1]): 6.84; pKd (HLA-A*03:01; [1]): 6.93
RQLFKPLTK	–	–	–	pKd (HLA-A*33:01; [3]): ≤ 4.11; pKd (HLA-A*68:01; [3]): ≤ 4.11; pKd (HLA-A*31:01; [3]): 5.62; pKd (HLA-A*11:01; [3]): 6.18; pKd (HLA-A*03:01; [3]): 7.04
RVIWMDAYK	–	–	–	pKd (HLA-A*33:01; [8]): 5.32; pKd (HLA-A*68:01; [8]): 9.08; pKd (HLA-A*31:01; [8]): 8.98; pKd (HLA-A*11:01; [8]): 9.10; pKd (HLA-A*03:01; [8]): 8.39
RVRRYQIAQY	–	–	–	pKd (HLA-A*33:01; [1]): ≤ 4.15; pKd (HLA-A*68:01; [1]): 5.20; pKd (HLA-A*31:01; [1]): 5.61; pKd (HLA-A*11:01; [1]): ≤ 4.59; pKd (HLA-A*03:01; [1]): 7.69
SCQGSDDIRK	–	–	–	pKd (HLA-A*33:01; [9]): ≤ 4.15; pKd (HLA-A*68:01; [9]): ≤ 4.15; pKd (HLA-A*31:01; [9]): 5.00; pKd (HLA-A*11:01; [9]): 4.74; pKd (HLA-A*03:01; [9]): ≤ 4.15
SFIEDLLFNK	–	–	–	pKd (HLA-A*33:01; [3]): 6.41; pKd (HLA-A*68:01; [3]): 6.14; pKd (HLA-A*31:01; [3]): 7.27; pKd (HLA-A*11:01; [3]): 6.45; pKd (HLA-A*03:01; [3]): 5.10
SFIVPEFAK	–	–	–	pKd (HLA-A*33:01; [1]): 5.08; pKd (HLA-A*68:01; [1]): 5.95; pKd (HLA-A*31:01; [1]): 7.56; pKd (HLA-A*11:01; [1]): 6.99; pKd (HLA-A*03:01; [1]): ≤ 4.36
